Residue numbers refer to the chain shown, from its start. In names and notes the source's numbering stands. Values belong to the binder of their own block, whether it stands above or below them.
How the values were obtained:
Human VSIG4-L-His [1] = molecular target: T1, Human VSIG4-L-His (human, UniProt Q9Y279 20-283); assay: SPR (Biacore T200), Fab P.E. 1:5 over immobilised antigen
T1 construct: long isoform ECD with His tag; also called hVSIG4-L
T1 sequence: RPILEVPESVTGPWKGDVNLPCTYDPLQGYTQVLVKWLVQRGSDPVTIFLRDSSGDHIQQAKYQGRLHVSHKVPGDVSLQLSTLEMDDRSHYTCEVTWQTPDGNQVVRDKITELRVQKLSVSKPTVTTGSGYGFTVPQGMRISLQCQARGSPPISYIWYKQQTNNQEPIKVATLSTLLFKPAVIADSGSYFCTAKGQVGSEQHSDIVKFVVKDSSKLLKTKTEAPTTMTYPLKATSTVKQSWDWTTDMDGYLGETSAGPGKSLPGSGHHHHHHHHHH
Protocol: Off-rate values of the mouse unique Fab clones were determined using surface plasmon resonance (SPR) in Biacore™ T200 equipment (GE Healthcare, Chicago, IL). […] The immobilization was performed in accordance with a method provided by Biacore and by using the NHS/EDC kit (GE Healthcare, Chicago, IL). […] Sixty μl of Fab P.E. samples, diluted 1:5 in HBS-EP+ assay buffer (0.1 M HEPES, 1.5 M NaCl, 0.03 M EDTA and 0.5% v/v Surfactant P20), were injected and passed through the flow cells at a flow rate of 30 μl/min. After binding of the samples to VSIG4 protein, the off-rate was monitored for a period of five minutes. The flow cell surface was regenerated by a double injection of 10 μl of 1 mM glycine at pH 1.5 in 1 M sodium chloride at 30 μl/min. Off-rate analysis was done using the BIAevaluation software (GE Healthcare, Chicago, IL) and using a 1:1 dissociation kinetic fit curve.

Human VSIG4-S-Fc = molecular target: T2, Human VSIG4-S-Fc (human); assay: ELISA, Fab P.E. 1:5 on coated antigen;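 also: mouse Fab P.E. samples in 1% skimmed milk PBS, bound to antigen-coated wells for 1 h at room temperature, read as absorbance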
T2 construct: short isoform ECD fused to human Fc1; also called hVSIG4-S
Protocol: (§1) Coated microplates were blocked with dried skimmed milk at 4% in PBS. P.E. samples of the mouse unique Fab sequences were diluted 1:5 in assay buffer (1% dried skimmed milk in PBS), and 100 μl of diluted sample was added onto the coated wells and incubated for one hour at room temperature. […] Optical density (OD) at 450 nm was determined using a standard absorbance microplate reader.

Human VSIG4-L-Fc [2] = molecular target: T3, Human VSIG4-L-Fc (human); assay: ELISA, Fab P.E. 1:5 on coated antigen;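 also: mouse Fab P.E. samples in 1% skimmed milk PBS, bound to antigen-coated wells for 1 h at room temperature, read as absorbance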
T3 construct: also called hVSIG4-L-Fc; hVSIG4-L
Protocol: as §1

[3] = molecular target: T4, Cynomolgus Monkey VSIG4-L-His (cynomolgus monkey); assay: ELISA, Fab P.E. 1:5 on coated antigen;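 also: mouse Fab P.E. samples in 1% skimmed milk PBS, bound to antigen-coated wells for 1 h at room temperature, read as absorbance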
T4 construct: ECD with His tag; also called cyVSIG4-L; cyno VSIG4-L-His
T4 chain: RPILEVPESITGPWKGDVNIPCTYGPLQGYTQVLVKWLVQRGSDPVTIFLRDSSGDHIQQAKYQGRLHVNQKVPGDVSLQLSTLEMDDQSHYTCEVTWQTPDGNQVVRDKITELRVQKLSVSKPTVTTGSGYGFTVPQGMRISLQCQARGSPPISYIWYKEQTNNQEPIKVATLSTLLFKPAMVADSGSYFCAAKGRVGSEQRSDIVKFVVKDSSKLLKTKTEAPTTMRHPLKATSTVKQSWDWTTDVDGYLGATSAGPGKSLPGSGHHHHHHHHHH
Protocol: as §1

Human VSIG4-S-His = molecular target: T5, Human VSIG4-S-His (human, UniProt Q9Y279 20-283); assay: BLI (Octet), mouse IgG on AMC sensor, antigen 100 nM;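 also: octet Red384 biolayer interferometry with immobilized mouse hybridoma antibodies, 300 s association then 300 s dissociation at 30 °C, isotype-control reference subtraction, 1:1 global fit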
T5 construct: short isoform ECD with His tag; also called hVSIG4-S; VISG4-S-His
T5 sequence: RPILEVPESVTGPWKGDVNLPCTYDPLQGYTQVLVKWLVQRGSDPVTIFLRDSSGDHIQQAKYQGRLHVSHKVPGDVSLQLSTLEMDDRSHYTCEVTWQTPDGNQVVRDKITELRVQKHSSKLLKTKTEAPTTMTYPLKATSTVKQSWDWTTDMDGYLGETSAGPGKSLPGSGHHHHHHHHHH
Protocol: (§2) The binding affinity of murine hybridoma antibodies was determined by biolayer interferometry (BLI), using a ForteBio Octet® Red384 system. […] Biosensors were rehydrated prior to the assay in kinetics buffer for 10 minutes and then equilibrated in kinetics buffer for 60 seconds. Antibody was then immobilized for 300 seconds followed by a 120 second baseline wash in fresh kinetics buffer, 300 second analyte association, and 300 second dissociation in the same buffer wells as the baseline wash step. All assay steps occurred at 30° C. with an acquisition rate of 5.0 Hz. Processing parameters included reference subtraction, with mouse IgG1 or mouse IgG2a used as an isotype control for reference sensor subtraction. Y-axis data was aligned to the average baseline step for the last 5 seconds and all steps were inter-step corrected to the start of the dissociation step. High frequency noise was removed using Savitzky-Golay filtering and final fitting was a 1:1 global binding model to both association and dissociation.

Human VSIG4-L-His [4] = molecular target: T1, Human VSIG4-L-His; assay: as above
Protocol: as §2

[5] = molecular target: T4, Cynomolgus Monkey VSIG4-L-His; assay: as above
Protocol: as §2

Human VSIG4-L-Fc [6] = molecular target: T3, Human VSIG4-L-Fc; assay: BLI cross-blocking on hVSIG4-L-Fc, competitor 12A12 first
Protocol: (§3) All assay steps occurred at 30° C. with an acquisition rate of 5.0 Hz.

Human VSIG4-L-Fc [7] = molecular target: T3, Human VSIG4-L-Fc; assay: BLI cross-blocking on hVSIG4-L-Fc, competitor 14C05 first
Protocol: as §3

T3 sequence (chain, as listed by the source limits assumed): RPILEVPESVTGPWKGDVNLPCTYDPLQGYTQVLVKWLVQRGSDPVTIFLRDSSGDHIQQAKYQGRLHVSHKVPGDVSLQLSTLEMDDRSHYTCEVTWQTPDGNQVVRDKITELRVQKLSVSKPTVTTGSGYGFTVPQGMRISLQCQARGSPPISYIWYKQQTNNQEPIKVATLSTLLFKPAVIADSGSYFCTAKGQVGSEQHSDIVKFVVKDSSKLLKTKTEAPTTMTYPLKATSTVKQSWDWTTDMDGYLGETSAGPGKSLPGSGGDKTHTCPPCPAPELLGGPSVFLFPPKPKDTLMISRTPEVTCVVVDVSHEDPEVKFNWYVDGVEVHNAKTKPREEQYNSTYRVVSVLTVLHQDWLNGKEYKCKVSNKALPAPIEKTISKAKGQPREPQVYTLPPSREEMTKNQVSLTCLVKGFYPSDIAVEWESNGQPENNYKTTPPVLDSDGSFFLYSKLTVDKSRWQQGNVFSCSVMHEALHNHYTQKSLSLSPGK
T2 sequence (chain, as listed by the source limits assumed): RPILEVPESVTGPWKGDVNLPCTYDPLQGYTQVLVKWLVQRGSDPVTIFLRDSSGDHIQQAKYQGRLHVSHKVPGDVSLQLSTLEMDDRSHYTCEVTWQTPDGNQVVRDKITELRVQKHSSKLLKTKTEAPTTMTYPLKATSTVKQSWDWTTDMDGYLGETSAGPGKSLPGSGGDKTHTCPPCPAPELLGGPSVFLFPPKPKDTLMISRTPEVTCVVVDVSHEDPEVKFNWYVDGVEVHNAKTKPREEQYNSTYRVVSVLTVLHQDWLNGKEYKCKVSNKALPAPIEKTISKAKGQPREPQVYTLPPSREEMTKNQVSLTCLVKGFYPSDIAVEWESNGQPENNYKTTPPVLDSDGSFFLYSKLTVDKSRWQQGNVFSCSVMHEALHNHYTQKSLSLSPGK

B1: 15C04 mouse Fab (periplasmic extract) (Fab, V domains shown)
VH: QIQLQESGPSLVRPSQTLSLTCSVTGDSITSGYWNWIRKFPGDKLEYLGYISYSGFTYYNPSLKSRISITRDTSKNQYYLQLNSVTTEDTATYYCASSYYGSSLGFPYWGQGTLVTVSA
VL: DVVMTQTPLSLPVSLGDQASISCRSSQSLVHSNGNTYLHWYLQKPGQSPKLLIYKVSNRFSGVPDRFSGSGSGTDFTLKISRVEAEDLGVYFCSQSTHVPWTFGGGTKLEIK
notes: mouse Fab with C-terminal His6-c-myc tag
koff (Human VSIG4-L-His [1]): 0.0019 s⁻¹
ELISA OD450 (Human VSIG4-S-Fc): 0.06 OD450
ELISA OD450 (Human VSIG4-L-Fc [2]): 4.21 OD450
ELISA OD450 [3]: 0.05 OD450

B7: 1H7.C7 murine hybridoma antibody (antibody, V domains shown)
VH: EVQLVESGGGLVMPGGSRRLSCAASGFTFSDSGMYWVRQAPEKGLEWIAYISSGSDTLYYAATVKGRFTISRDNAKNTLFLQMTSLRSEDTAIYYCAKRNFYGYDVMDYWGQGTSVTVSS
VL: DIVMTQSHKFMSTSVGDRVSITCKASQDVSNVVAWYQQKPGQSPKLLIYSASYRYTGVPDRFAGSGSGTDFTFTISSVQAEDLAVYYCQQHYSTPWTFGGGTKLEIK
notes: murine IgG purified from hybridoma supernatant
Kd (Human VSIG4-S-His): 21.5 nM
Kd (Human VSIG4-L-His [4]): 6.83 nM
Kd [5]: 6.45 nM

B9: 16E03 mouse Fab (periplasmic extract) (Fab, V domains shown)
VH: QVQLQQSGAELARPGASVKMSCKASGYTFTSYTMHWIKQRPGQGLEWIGYINPSSGHTYYNQKFKDKATLTPDKSSSTAYMQLTSLTSEDSAVYYCARRIPTAYAMDYWGQGTSVTVSS
VL: EIQMTQSHKFMSTSVGDRVSITCKASQDVGTAVAWYQQKPGQSPKLLIYWASTRHTGVPDRFTGSGSGTDFTLTISNVQSEDLADYFCQQYSSYPLTFGAGTKLELK
notes: as for B1
koff (Human VSIG4-L-His [1]): 0.013 s⁻¹
ELISA OD450 (Human VSIG4-S-Fc): 4.3 OD450
ELISA OD450 (Human VSIG4-L-Fc [2]): 4.43 OD450
ELISA OD450 [3]: 0.21 OD450

B10: A2 anti-VSIG4 antibody, human IgG4 (S228P) kappa (antibody, V domains shown)
VH: QVTLKESGPTLVKPTQTLTLTCTFSGISLTTSGMGVGWIRQPPGKALEWLADIFWDDNKYYNPSLKSRLTITKDTSKNQVVLTMTNMDPVDTATYYCVRVYYKNDGYFDVWGKGTTVTVSS
VL: DIVLTQSPLSLPVTLGQPASISCRASKSVTTSGYSFMHWYQQRPGQSPRLLIYLASNLEPGVPDRFSGSGSGTDFTLKIFRVEAEDVGVYYCQQSGELPYTFGQGTKLEIKR
notes: variable regions from U.S. Pat. Publ
binding signal (nm shift) (Human VSIG4-L-Fc [6]): 0.6 nm
binding signal (nm shift) (Human VSIG4-L-Fc [7]): 0.57 nm

B11: 10E8.B6 murine hybridoma antibody (antibody, V domains shown)
VH: EVQLQQSGPELMKPGDSVKMSCKASGYTFTDYYMDWVKQSHGKSLEWIGYIYPNIDFTTYNQKFKGKATLTVDKSSNTAYMELHSLTSEDSAVYYCTRRDLPLHGSAYYFDYWGQGTTLTVSS
VL: DIVMSQSPSSLAVSAGEKVTMSCKSSQSLLNSRTRKNYLAWYQQKPGQSPKLLIYWASTRESGVPDRFTGSGSGTDFTLTISSVQAEDLAVYYCKQSYDLFTFGSGTKLEIK
notes: as for B7
Kd (Human VSIG4-S-His): 6.95 nM
Kd (Human VSIG4-L-His [4]): 2.13 nM
Kd [5]: 1.56 nM

Next, values leading:

Kd (Human VSIG4-S-His): 4.99 nM
Kd (Human VSIG4-L-His [4]): 1.76 nM
Kd [5]: 1.4 nM
B2: 13E11.A4 murine hybridoma antibody (antibody, V domains shown)
VH: EVQLVESGGALVKPGGSLKLSCVASRFNLNNCVMSWIRQTPEKRLEWVATIDSGSIYTYYPDSVKGRFTISRDNAKNTLYLQMSSLRSEDTAVYYCVRHIYGYDVVDNWGQGTTLTVAS
VL: DIVMTQSHKFMSTSVGDNVSITCKASQYVSNTVAWYQQKPGQSPKLLIYSASYRNTGVPDRFTGSGSGTNFTFTISNMQAEDLAFYYCQQHYTSPLTFGAGTKLELK
notes: as for B7

Kd (Human VSIG4-S-His): 5.86 nM
Kd (Human VSIG4-L-His [4]): 1.72 nM
Kd [5]: 2.02 nM
B3: 14F8.H6 murine hybridoma antibody (antibody, V domains shown)
VH: EVHLVESGGALVKPGGSLKLSCTASGFTFSNSVMSWIRQTPEKRLEWVATIGSGGTYIYYPDSVKGRFTISRDNSKNTLFLQMTSLRSEDTALYYCARHIYGYDVVDYWGQGTTLTVST
VL: DIVMTQSHRFMSTSVGDRVSITCKASHDVSNVVAWYQQKPGQSPELLIYSASYRYTGVPARFTGSGSGTDFTFTISSVQAEDLAVYFCQQHFTTPLTFGAGTSLEVR
notes: as for B7

Kd (Human VSIG4-S-His): 0.505 nM
Kd (Human VSIG4-L-His [4]): 0.475 nM
Kd [5]: 0.435 nM
B4: 5D2.C8 murine hybridoma antibody (antibody, V domains shown)
VH: EVKLVESGGGLVKPGGSLKLSCAVSGFTFSNSAMSWVRQTPAKRLEWVAYISISGDNTYYPDSVKGRFTISRDNAKNTLYLQMSSLRSEDTAMYYCARRGYDYDGFTHWGQGTLVTVSA
VL: DILLTQSPAILSVSPGERVSFSCRASQNIGTSIHWYQQRTNGSPRLLIKYASQSISGIPSRFSGSGSGTDFTLSINSVESEDIADYYCQQSYSWPLTFGTGTQLELK
notes: as for B7

Kd (Human VSIG4-S-His): 3.29 nM
Kd (Human VSIG4-L-His [4]): 1.03 nM
Kd [5]: 1.13 nM
B5: 1C6.D6 murine hybridoma antibody (antibody, V domains shown)
VH: QVQLQQPGAEMVRPGTSVKLSCKASGYTFTSYWMHWVKQRPGQGLEWIGKIDPSHNKTHYIQKFEDKATLTVDKSSSTAYMHLNSLTSEDSAVYYCVTWDGDFLYWGQGTLVTVSA
VL: NIVLTQSPASLTVSLGQRATISCRASESVDSYGNSFMHWYQQKPGQPPKLLIYITSNLQSGVPARFSGGGSRTDFTLTIDPVEADDAATYYCQQNNEDPWTFGGGTKLEIK
notes: murine IgG purified from hybridoma supernatant; also called 1C6.D6b

Kd (Human VSIG4-S-His): 2.87 nM
Kd (Human VSIG4-L-His [4]): 0.472 nM
Kd [5]: 0.802 nM
B6: 16F6.E1 murine hybridoma antibody (antibody, V domains shown)
VH: QVQLQQPGAEMVRPGASLKLSCKASGYTFTSYWMHWVKQRPGQGLEWIGKIDPSKNTTHYNQNFRDKATLTVDRSSSTAYMQLNSLTSEDSAVYFCVTWDGDFTYWGQGTLVTISA
VL: B5 VL with A9P, T12A, I54L, T55A, Q59E, G69S, Y91F, Q93H
notes: murine IgG purified from hybridoma supernatant; also called 16F6.H6

Kd (Human VSIG4-S-His): 5.16 nM
Kd (Human VSIG4-L-His [4]): 0.965 nM
Kd [5]: 1.23 nM
B8: 9A10.C4 murine hybridoma antibody (antibody, V domains shown)
VH: EVQLVESGGALVQPGGSLKLSCVASGFSFSNCVMSWVRQSPEKRLEWVATIGSDGSYSYYQDNVKGRFTVSRDNAKNTLYLQMSSLGSEDTALYYCGRHIYGYDVVDYWGQGTSLTVSS
VL: B7 VL with S20T, Y36F, Y55F, T56G, A63T, S93D, W96L, G100T, K103T, I106L
notes: as for B7

— patent publication US20230348603A1 (VERSEAU THERAPEUTICS, published 2023)
